Assay results published in CN115477698A (UNIV CHONGQING MEDICAL; FENG YULIN, dated 2022).

B1: 单抗19-CQTS064 (antibody, V domains shown)
VH: EVQLVQSGAEVKKPGESLKISCEGSGYSFISYWIGWVRQMPGKGLEWMGIIYPGDSDTRYSPSFQGQVTISADRSISTAYLQWSSLKASDTAMYYCVRSDGDYVIGHDYWGQGTLVTVSS
VL: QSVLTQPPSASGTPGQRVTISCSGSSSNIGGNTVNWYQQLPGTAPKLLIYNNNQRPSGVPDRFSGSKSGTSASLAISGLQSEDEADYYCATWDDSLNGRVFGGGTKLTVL
B2: 单抗13-CQTS057 (antibody, V domains shown)
VH: QVTLRESGPALVKPTQTLTLTCTFSGFSLSTSGMCVSWIRQPPGKALEWLARIDWDDDKYYSTSLRTRLTISKDTSKNLVVLTMTNMDPVDTATYYCALGRAGTMDYWGQGTLVTVSS
VL: DIQMTQSPSSLSASVGDRVTITCRASQSIRSYLNWYQQKPGKAPKVLIYAASSLQSGVPSRFSGSGSGTDFTLTISSLQPGDFATYYCQQSYSPPYTFGQGTKLEIK
B3: 单抗14-CQTS058 (antibody, V domains shown)
VH: EVQLVESGGGLVQPGRSLRLSCAASGFTFDDYAMHWVRQAPGKGLEWVSGISWSSGSIVYADSVKGRFTVSRDNAKNSLYLQMNSLRVEDTAFYYCAKDMVAGPHYYGMDVWGQGTTVTVSS
VL: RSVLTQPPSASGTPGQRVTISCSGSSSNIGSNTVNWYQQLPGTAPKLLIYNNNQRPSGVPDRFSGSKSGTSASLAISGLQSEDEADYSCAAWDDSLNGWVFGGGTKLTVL
B4: 单抗18-CQTS063 (antibody, V domains shown)
VH: QVQLVQSGAEVKKPGSSVKVSCKASGGTFSSYAISWVRQAPGQGLEWMGGIIPIFGTANYAQKFQGRVTITADESTSTAYMELSSLRSEDTAVYYCATDGGGGSYYYAHYYYGMDVWGQGTTVTVSS
VL: QTVVTQEPSFSVSPGGTVTLTCGLSSGSVPTSYFPSWYQQTPGQAPRTLIYGTNTRSSGVPDRFSGSILGNKAALTITGAQADDESDYYCVLYMGSGIVVFGGGTKLTVL
B5: 单抗11-CQTS055 (antibody, V domains shown)
VH: EVQLVESGGGLVQPGGSLRLSCAASGFTFSNYDMHWVRQGTGKGLEWVSAIGTAGDTYYPGSVKGRFTISRENAKNSLYLQMNSLRAGDTALYYCARVGYYGSGSYPLYWYFDLWGRGTLVTVSS
VL: DIQMTPSPSSLSASVGDRVTITCRASQSISIYLNWYQQKPGKAPKLLIYAASNLQSGVPSRFSGSGSGTEFTLTISSLQPEDFATYFCQQSYSAPPWTFGQGTRVEIR
notes: also called 实施例1的新冠病毒RBD特异性单克隆抗体
B6: 单抗17-CQTS062 (antibody, V domains shown)
VH: EVQLVESGGGLVQPGRSLRLSCAASGFTFDDYAMHWVRQAPGKGLEWVSGISWNSDSIGYADSVKGRFTISRDNAKNSLYLQMNSLRAEDTALYYCAKDLSSGWDLFDYWGQGTLVTVSS
VL: SYVLTQPPSVSVAPGKTARITCGGNNIGSKSVHWYQQKPGQAPVLVIYYDSDRPSGIPERFSGSNSGNTATLSISRVEAGDEAGYYCQVWDTSGDPLVFGGGTKLTVL
B7: 单抗20-CQTS065 (antibody, V domains shown)
VH: EMQLVESGGGLVQPGGSLRLSCAASGFTFSTYEMNWVRQAPGKGLEWVSYISSSTNSIYYAGSVQGRFTISRGNAKNSLYLQMNSLRAEDTAVYYCARGRDDYGDYRGGDFDYWGQGTLVTVSS
VL: QIVLTQSPATLSLSPGERATLSCRASQSVTTYLAWYQQKPGQAPRLLIYDASHRATGIPARFSGSGSGTDFTLTISSLEPEDFAVYYCQQRSNWPPITFGPGTKVEIK
B8: 单抗12-CQTS056 (antibody, V domains shown)
VH: EVQLVQSGAEVKKPGESLKISCQGSGFSFSNYWIGWVRQMPGKGLEWMGIIYPDDSDTRYSPSFQGQVTISADKSISTAFLQWSSLKASDTAMYYCATRTGWTNDAFDIWGQGTMVTVSS
VL: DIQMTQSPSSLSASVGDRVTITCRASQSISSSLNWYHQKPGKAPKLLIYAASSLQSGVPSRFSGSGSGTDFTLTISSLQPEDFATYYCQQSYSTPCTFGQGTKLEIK
B9: 单抗16-CQTS061 (antibody, V domains shown)
VH: EVQLVESGGGLVQPGGSLRLSCAASGFTVISNYMSWVRQAPGKGLEWVSVIYRGGSTYFADSVKGRFTISRDNSKNTLYLQMNSLRAEDTAVYYCARLASDGSGSYLDYFDYWGQGTLVTVSS
VL: QSVLTQPPSVSGAPGQRVTISCTGSSSNIGADYDVHWYQQFPGTAPKLLIYGNSNRPSGVPDRFSGSKSGTSASLAITGLQAEDEADYYCQSYDSSLSGSWVFGGGTKLTVL
B10: 单抗15-CQTS059 (antibody, V domains shown)
VH: EVQLVQSGAEVKKPGESLKISCKASGYRFTNYWTVWVRQMPGKGLEWMGIIYPGDSEIRYSPPFQGQVTISADKSISTAYLQWSSLKASDTAMYYCARHPSNFYDSGGDYYAMDVWGQGTPVTVSS
VL: QSALTQPASVSGSPGQSITISCTGTSSNVGNYDLVSWYQQHPGKAPKLMIYEVNKRPSGVSDRFSGSKSGNTASLTISGLQAEDEADFYCCSYAGSSSWVFGGGTKVTVL

What follows are binders tested against SARS-COV-2RBD (SARS-CoV-2, UniProt P0DTC2 319-541) (assay: ELISA, RBD coated at 2 μg/mL, 293T transfection supernatant, anti-human IgG-ALP detection).
B1: binds. B2: binds. B3: binds. B4: binds. B5: binds. B6: binds. B7: binds. B8: binds. B9: binds. B10: binds.
